{"source": "the nanobody polyreactivity screen of Harvey et al. (2022)"}
{"experiment": "yeast display, Sf9 membrane polyspecificity reagent, FACS + sequencing; frameworks hold sequencing errors", "how_it_was_run": "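After 36–48 hours of galactose induction, yeast (Saccharomyces cerevisiae BJ5465) displaying a synthetic nanobody library were stained at 4 °C for 1 hour with 10% biotinylated, detergent-solubilized Sf9 membrane reagent. Streptavidin microbeads enriched the stained cells before FACS sorting into low and high (top ~1%) gates on anti-HA and streptavidin fluorescence. Each clone's polyreactivity label reflects its gate of origin.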"}
{"sequence": "QVQLVESGGGLVQAGGSLRLSCAASGSIFKVYAMGWYRQAPGKEREIVAAITSSDSNTNYADSVKGRFTISRDNEKNTVYLQMNSLKPEDTAVYYCNARIYTRRYVPHYGFNYWGQGTQVTVSS", "polyreactivity (PSR sort gate)": "low polyreactivity"}
{"sequence": "QVQLVESGGGLVQAGGSLRLSCAASVSIFETYAMGWSRQAPGKERELDAAISSSGGTTYYADSVKGRFTISRDTAKNTVYLQMNSLKPEDTAVYYCAARSAATHWTFLFYYDFDYWGQGTQVTVSS", "polyreactivity (PSR sort gate)": "low polyreactivity"}
{"sequence": "HVQLVESGGGLVQAGGSLRLSCAASGSIFKRYAMGWYTQAPGKERELVAAITSGGSTNYADSVKGRFTISRDNAKNTVYLQMNSLKPEDTAVYYCAAEHDYYPSNLDYWGQGTQVTVSS", "polyreactivity (PSR sort gate)": "low polyreactivity"}
{"sequence": "QVQLVESGGGLVQAGGSLRLSCAASGFIFVYYAMGWYRQAPGKERELVATISSSSASTYYADSVKGRFTISRDNAKNTVYLQMNSLKPEDTAVYYCAVLVSRYRYRVLDDSWGQGTQVTVSS", "polyreactivity (PSR sort gate)": "high polyreactivity"}
{"sequence": "QVQLVESGGGLVQAGGSLRLSCAASGRTFDHNAMGWYRQAPGKERELVAAITWSGGITDYADSVKRPFTISRDNAKNTVYLQMNSLKPEDTAVCGQGTQVTVSS", "polyreactivity (PSR sort gate)": "low polyreactivity"}
{"sequence": "QVQLVESGGGLVQAGGSLRLSCAASGFNYRYYAMGWYRQAPGKERELVAAIDYSGGSTNYADSVKGRFTISRDNAKNTVYLQMNSLNPEDTAVYYCNAEYTWHRGYDYWGQGTQVTVSS", "polyreactivity (PSR sort gate)": "low polyreactivity"}
{"sequence": "QVQLVESGRGLVQAGGSLPLSSASSGLTFKTYAMGRYRQAPGKVSELVAAITSGGTSTYYADSVKGRFTISRDNAKNTVYFQMNSLKPEDTAVYYCAARYYFSYSVGYYYWGQGTQVTVSS", "polyreactivity (PSR sort gate)": "high polyreactivity"}
{"sequence": "QVHLVESGGGLLQAGGSLPLSCAASGSIFYSYAMGWYRQAPGKVRELVAVISWSGGSTYYADSVKGRFTISRDNAKNTVYLQMNSLKPEDTAVYYCAADQGWEFDYWGQCTQVTVSS", "polyreactivity (PSR sort gate)": "low polyreactivity"}
{"sequence": "QVQLVESGGGLVQAGGSLGLSCAASGFTFHNYAMGWYRQAPGKERELVAAITWDGGSTYYAVSVKGRFTISRDKAKNTVDLQMNSLKPEDTAVYYCALDPYYYYYGDYNFDYWGQGTQVTVSS", "polyreactivity (PSR sort gate)": "high polyreactivity"}
{"sequence": "QVQLVESGGGLVQAGGSLRLSCAASGNTFVSNAMGWYRQAPGKERELVAAIDSGGSTNYADSVKGRFTISRDNEKNTVYLQMKSLKPEDTAVYYCNRTSVYYYYWGQGTQVTVSS", "polyreactivity (PSR sort gate)": "low polyreactivity"}
{"sequence": "QVQLVESGGGLVQAGGSLRLSCAASGSTFGLYAMGWYRQAPGKERELVADITWSGGSTYYADSVKGRFTISRDNAKNTVYLQMNSLKPEDTAVYYCAADGYDQYPLWAPPGDYWGQGTQVTVSS", "polyreactivity (PSR sort gate)": "low polyreactivity"}
{"sequence": "QVQLVESGGGLVQAGGSLRLTCAASGIIFDDYAMGWYRQAPGKERELVAAISWIGTTTYYADSVKGRFTISRDNAKKTVYFQMNILKPEDTAVYYCNARPYPSYKYDYWGQGTQVTVSS", "polyreactivity (PSR sort gate)": "high polyreactivity"}
{"sequence": "QVQLVESGGGLVQAGGSLRLSCAASGNIYDPYAMGWYRQAPGKERELVARISSGGRTDYADSVKGRFTISRDNAKNTVYLQMNSLKPEDTAVYYCAADVLQAYYLTLFGYRYYLVDYWGQGTQVTVSS", "polyreactivity (PSR sort gate)": "low polyreactivity"}
{"sequence": "QVQLVESVGGLVQAGASLRLSCAASGITFVYYALGWYRQAPGKERELVAAITSTGGSTYYADSVKGRFTISRDNAKNTVYLQMNSLKPEDTSVYYCAAVPRGTQGAMDYWGQGTQVTVSS", "polyreactivity (PSR sort gate)": "low polyreactivity"}
{"sequence": "QVQLVESGGGLVQAGGSLRLSCAASGSTFNDYAMGWYRQAPGKERELVAGITWRGTSTYYADSVKGRFTISRDNAKNTVYLQMNSLKPEDTAVYYCAADVYYLLWLWMDYWGQGTQVTVSS", "polyreactivity (PSR sort gate)": "low polyreactivity"}
{"sequence": "QVQLVESGGGLVQAGGSLRLSCAASGSIFVQYALGWYRQAPGKERELVAAISQRGGSTYYADSVKGRFTISRDNAKNTVYVQMNSLKPADTAVYYCRPYPPSYYVTFGYGYWGQGTQVTVSS", "polyreactivity (PSR sort gate)": "high polyreactivity"}
{"sequence": "QVQHVESGGGLVQAGGSLRLSCAASGFTIPNYAMGLYRQAPGKERELVAAITSGGGRTNYADSVKGRFTISRDNAKNTVDLQMNSLKPEDTAVYDCAKTRLRGSEFGFWGQGTQVTVSS", "polyreactivity (PSR sort gate)": "low polyreactivity"}
{"sequence": "QVQLVESGGGLVQAGGRLRLSCAASGRIGPNVMGWYRQPPGKERELVAAISRRGGSTYYADSVKGRFTISRDNAKNTVYLQMNSLKPEDTAVYYCAKDLYTLAVKGGDYWGQGTQVTVSS", "polyreactivity (PSR sort gate)": "high polyreactivity"}
{"sequence": "QVQLVESGGGLVKAGGSLRLSCAASGRIDSTYAMGWSRQAPGKERDLVAAINKIGGSTYYADSVKGRFTISRDNEKNTVYLQMNSLKPEDTAVYYCAADAPYYPVRRYYYWGQGTQVTVSA", "polyreactivity (PSR sort gate)": "low polyreactivity"}
{"sequence": "QVQLVESGGGLVQAGGSLRLSCAASGNTFTWYTMGWYRQAPGKERELVAVITSDGSTYYADSVKGRFTISRDNAKNTVYLQMNSLKPEDTAVYYCNARYLRLRYPYTDEYNYWGQGTQVTVSS", "polyreactivity (PSR sort gate)": "low polyreactivity"}
{"sequence": "QVQLVESGGGLVQAGGSLRLSCAASGRIFRHYGMGWYRQAPGKERELVARITRSGGSTYYADSVKGRFTISRDNAKNTVYLQMTSLKPEDTAVYYCAAFTYGESWYDYWGQGTQVTVSS", "polyreactivity (PSR sort gate)": "low polyreactivity"}
{"sequence": "QVQLVESGGGLVQAGGSLRLSCAASGRTFHYYAMGWYRQAPGKERELVASITYNGGDTYYADSVKGRFTISRDNAKNTVYLQMNSLKPEDTAVYYCAAEYYGHRYDYWGQGTQVTVSS", "polyreactivity (PSR sort gate)": "low polyreactivity"}
{"sequence": "QVQLVESGGGLVQAGGSLRLSCAASGRISTTNAMGWYRQAPGKERELVASITSGGGTNYADSVKGRFTISRDNAKNTVYLQMNCLKPEDTAVYYCAKRRSYFLHSYYSYGYWGQGTQVTVSS", "polyreactivity (PSR sort gate)": "high polyreactivity"}
{"sequence": "QVQLVESGGGLVQAGGRLRLSCAASGLNFYLYAMGWYTQAPGKERELVATITSAGRTNSADTVKGRFTISRDNAKNTVYLERNSLKPEYTAVYYCIRDVRFVGPSGFDYWGQGTEVTVSS", "polyreactivity (PSR sort gate)": "high polyreactivity"}
{"sequence": "QVQLVESRGCLVQAGGSLRLSCAASGRTFYRYVMGWYRQAPGKEMELVAAISEGGGSTFYADSVKGRFTISRDNAKNTDYLQMNSLKPEDTAVYYCAADYYVRGGFFRYDYWGQGTQVTVSS", "polyreactivity (PSR sort gate)": "low polyreactivity"}
{"sequence": "QVQLVESGGGLVQAGGSLRLSCAASGSTSLVNAMGWYRQAPGKERELVAAITRGGNTYYADSVKGRFTISRDNAKNTVYLQMNSLKPEDTAVYYCNVGQDALYRLEYWGQGTQVTVSS", "polyreactivity (PSR sort gate)": "low polyreactivity"}
{"sequence": "QVQLVESGGGLVQAGGSLRLSCAASGIIFRYNAMGWYRQAPGKERELVAVINWRSGGTYYADSVKGRFTISRDNAKNTVYLQMNSLKPDDTADYYCADRVGSWTQSFGYDYWGQGTQVTVSS", "polyreactivity (PSR sort gate)": "high polyreactivity"}
{"sequence": "QVQLVESGGGLVQAGGSLRLSCAASGSTLLGYTMGWYRQAPGKERELVAVISWSGGGTYYADSVKGRFTISRDNAKNTVYLQMNSLKPEDTAVYYCAAETVLGYWYYRKYYYWGQGTQVTVSS", "polyreactivity (PSR sort gate)": "high polyreactivity"}
{"sequence": "QVQLLESGGGLVQAGGSLRLSCAASGSILFTNAMGWYRQAPGKERELVAAISSGGSTYYADSVKGRFTFSRDNAKNTVYLQMNSLKPEDTAVYYSAADQLNVGREYVEYDYWGQGTQVTVSS", "polyreactivity (PSR sort gate)": "low polyreactivity"}
{"sequence": "QVQLVESGGGLVQAGGSLRLSCDASGSIFRYYGMGWYRQAPGKEREMVAVISYRGGSTYYADSVKGRFTISRDNAKNTVYLQMNSLKPEDTAVYYCIADDPSKLGYEHDYWGQGTQVTVSS", "polyreactivity (PSR sort gate)": "low polyreactivity"}
{"sequence": "QVQLVESGGGLVQAGGSLRLSCAASGFIFRYYAMGWYRQAPGKERELVAAISWRGGTTYYADSVKGRFTFSRDNAKNTVYLQMNSLKPDDTAVYYCAADWQWDLGPYIYQVEYWGQGTQVTVSS", "polyreactivity (PSR sort gate)": "high polyreactivity"}
{"sequence": "QVQLVESGGGLVQAGGSLRLSCAASGRSILLNAMGWYRHAPGKERELVAAISRGGSTYYADSVKGRFTISRDNAKYSVYLQMNSLKPEDTAVYYCAARFWISHTHWDAGDYWGQGTQVTVSS", "polyreactivity (PSR sort gate)": "low polyreactivity"}
{"sequence": "QVQLVESGGGLVQAGGSLRLSCAASGSIVGGYDMGWYRQAPGKERELVAVINSNGGSTYYADSVKGRFTISRDNANNTVYLQMNSLKPEDTAVYYCAADYESYVYIGYGYWGQGTQVTVSS", "polyreactivity (PSR sort gate)": "low polyreactivity"}
{"sequence": "QVQLVESGGGLVQAGGSLRLSCAAYGFIFVRYAMGWYRQAPGKERELVAAISWRGGSTYYADSVKGRFTISRDNAKNTVYLQMNSLKPEDNAVYYCAGAVYQRARYYWGQGTQVNVSS", "polyreactivity (PSR sort gate)": "high polyreactivity"}
{"sequence": "QVQLVESGGGLVQAGGSLRLSCAASGFIFGYNVMGWYIQAPGKERELVASISTGGRTYYADSVKGRFTISRDNAKNTVYLQMYSLKPEDTAVYYCAARYRSYSYLYYSWGQGTQVTVSS", "polyreactivity (PSR sort gate)": "high polyreactivity"}
{"sequence": "QVQLVESVGGLVQAGASHRLSCAASGLNFFKYTMGWYIQAPGKERELVAAISRRGGSTYYADSVKGRFTISRDNAKNTVYLQMNSLKPDDTAVYYCNKRLGTGYYYGYDYWGQGTQVTGSS", "polyreactivity (PSR sort gate)": "high polyreactivity"}
{"sequence": "QVQLVESGGGLVQAGGSLRLICAASGRIFRYYAMGWYRQAPGKERELVASISWRGGSTYYADSVKGRFTISRDNAKNTVYLQMNSLKPDDTAVYYCNAAPGAFYRWWGFGSDYWGQGTQVTVSS", "polyreactivity (PSR sort gate)": "high polyreactivity"}
{"sequence": "QVQLVESAGGLVQAAGSLRLSCAASGSIFSTNAMGWYRQAPGKERELVAAITYRGRTFYADSVKGRFTISRDNAKNTVYLQMNSLKPEDTAVYYCNAVGISWFGYLKAYVYWGKGTQVTVSS", "polyreactivity (PSR sort gate)": "high polyreactivity"}
{"sequence": "QVQLVESGGGLVQAGGSLRLSCGASGRIFGPYTMGWARQGPGKERELVARISRRGGSTYYADSVKGRFTISRDNAKNTVYLQMNSLKPEDTAVYYCARSQAVYDGWFAKFGYWGQGTQVTVSS", "polyreactivity (PSR sort gate)": "low polyreactivity"}
{"sequence": "QVQLVESGGGLVQAGGSLRLSCAASGSTFGFNAMGWYRQAPGKERELVASITSGDSTYYADSVKGRFTISRDNAKNTVYLQMNSLKPEDTAVYYCAKVGGGGQAGDNPILSDYWGQGTQVTVSS", "polyreactivity (PSR sort gate)": "low polyreactivity"}
{"sequence": "QVQLVESGGGLVQAGGSLRLSCAASGRIFGFYARGWYRQAPGKEREFVADITSGGSTNYADSVKGRFTISRDNAKNTVYLQMNSLKPEDTAVYYCNALSYVWYRYPGNWDEDDYWGQGTQVTVSS", "polyreactivity (PSR sort gate)": "low polyreactivity"}
{"sequence": "QVQLVESGGGLVQAGGSLRLSCAASGIIFYGYAMGWYRQAPGKERELVAAIRWRGGSTYYADSVKGRFTISRDNAKNTVYLQMNSLKPADTAVYFCAADQTRYTSVFSSTRYDYWGQGTQVTVSS", "polyreactivity (PSR sort gate)": "low polyreactivity"}
{"sequence": "QVQLVESGGGLVQAGGSLRLSCAASGFTFVGNAMGWYRQAAGKEWELVADITGSDGSTYYADSVKGRFTISRDNAKNTVYLQINSLKPEDTAVYYCAASPPYKLVWWRRMDYWGQGTQVTVSS", "polyreactivity (PSR sort gate)": "low polyreactivity"}
